# The supplement of paper PMC9112550, “Optimization of the antimicrobial peptide Bac7 by deep mutational scanning” (BMC Biology, 2022)
# System: Escherichia coli TOP10
# Assay: shrunken log2 fold change of peptide-encoding DNA abundance (4.5 h post-induction vs induction); higher = less antimicrobial activity (less host growth inhibition)
# Conditions: time post-induction: 4.5 h; library: site-saturation at positions 5, 18, 19, 20
# 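Further: peptides expressed intracellularly from a pBAD plasmid library in pooled LB shake-flask culture, induced with 0.3% L-arabinose, DNA abundance read by NGS, three biological replicates, DESeq2 with apeglm shrinkage.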
row,Sequence,shrunken log2 fold change
1,RRIRERPPRLPRPRPRPQKRPRP,0.462
2,RRIRIRPPRLPRPRPRPRLSPRP,-0.325
3,RRIRARPPRLPRPRPRPTWLPRP,0.33
4,RRIRERPPRLPRPRPRPSVQPRP,-0.204
5,RRIRNRPPRLPRPRPRPNQRPRP,0.0166
6,RRIRLRPPRLPRPRPRPRMCPRP,-0.0246
7,RRIRARPPRLPRPRPRPHPTPRP,0.648
8,RRIRGRPPRLPRPRPRPVLLPRP,0.122
9,RRIRERPPRLPRPRPRPNYLPRP,-0.0974
10,RRIRERPPRLPRPRPRPWPDPRP,-0.0169
11,RRIRERPPRLPRPRPRPYLNPRP,-0.326
12,RRIRLRPPRLPRPRPRPQRQPRP,0.316
13,RRIRKRPPRLPRPRPRPCIQPRP,0.0636
14,RRIRDRPPRLPRPRPRPGEPPRP,0.613
15,RRIRRRPPRLPRPRPRPVRSPRP,0.551
16,RRIRKRPPRLPRPRPRPKIEPRP,-0.0694
17,RRIRHRPPRLPRPRPRPRNPPRP,0.0812
18,RRIRERPPRLPRPRPRPLWPPRP,0.0539
19,RRIRVRPPRLPRPRPRPKIEPRP,0.132
20,RRIRVRPPRLPRPRPRPYSMPRP,-0.692
21,RRIRYRPPRLPRPRPRPCFVPRP,-1.09
22,RRIRLRPPRLPRPRPRPRHCPRP,0.232
23,RRIRFRPPRLPRPRPRPKPTPRP,0.879
24,RRIRYRPPRLPRPRPRPNQKPRP,-0.0988
25,RRIRIRPPRLPRPRPRPSSQPRP,-0.674

row,Sequence,shrunken log2 fold change
1,RRIRRRPPRLPRPRPRPKKPPRP,0.974
2,RRIRYRPPRLPRPRPRPEHMPRP,-0.304
3,RRIRQRPPRLPRPRPRPKIYPRP,-0.277
4,RRIRTRPPRLPRPRPRPKCTPRP,-0.0569
5,RRIRTRPPRLPRPRPRPELMPRP,0.0498
6,RRIRIRPPRLPRPRPRPFEIPRP,-0.0373
7,RRIRRRPPRLPRPRPRPINTPRP,-0.364
8,RRIRRRPPRLPRPRPRPPEEPRP,1.37
9,RRIRCRPPRLPRPRPRPKGPPRP,0.348
10,RRIRFRPPRLPRPRPRPESPPRP,0.00789
11,RRIRGRPPRLPRPRPRPTIIPRP,-0.026
12,RRIRARPPRLPRPRPRPFGLPRP,2.49
13,RRIRHRPPRLPRPRPRPEPLPRP,0.0544
14,RRIRIRPPRLPRPRPRPYIVPRP,-0.0153
15,RRIRHRPPRLPRPRPRPAQFPRP,-0.0111
16,RRIRRRPPRLPRPRPRPLYRPRP,-0.121
17,RRIRFRPPRLPRPRPRPVVRPRP,0.153
18,RRIRGRPPRLPRPRPRPFGTPRP,0.196
19,RRIRCRPPRLPRPRPRPCACPRP,-0.421
20,RRIRHRPPRLPRPRPRPAHFPRP,0.165
21,RRIRARPPRLPRPRPRPWHMPRP,-0.361
22,RRIRRRPPRLPRPRPRPMVDPRP,0.0808
23,RRIRHRPPRLPRPRPRPIYSPRP,0.0188
24,RRIRQRPPRLPRPRPRPGIKPRP,-1.89e-05
25,RRIRSRPPRLPRPRPRPQYTPRP,-0.983

row,Sequence,shrunken log2 fold change
1,RRIRNRPPRLPRPRPRPESKPRP,-0.0938
2,RRIRLRPPRLPRPRPRPPFMPRP,0.086
3,RRIRLRPPRLPRPRPRPECEPRP,0.147
4,RRIRCRPPRLPRPRPRPSAHPRP,-0.0707
5,RRIRGRPPRLPRPRPRPYWWPRP,-0.0995
6,RRIRIRPPRLPRPRPRPHWHPRP,-0.153
7,RRIRRRPPRLPRPRPRPNPPPRP,0.451
8,RRIRYRPPRLPRPRPRPLHYPRP,-1.53
9,RRIRMRPPRLPRPRPRPHTNPRP,0.0722
10,RRIRMRPPRLPRPRPRPTVIPRP,-0.271
11,RRIRWRPPRLPRPRPRPTSQPRP,0.229
12,RRIRARPPRLPRPRPRPVLGPRP,0.419
13,RRIRNRPPRLPRPRPRPMHNPRP,-0.286
14,RRIRNRPPRLPRPRPRPTVTPRP,0.354
15,RRIRMRPPRLPRPRPRPVQKPRP,0.069
16,RRIRMRPPRLPRPRPRPRIMPRP,0.049
17,RRIRARPPRLPRPRPRPHEDPRP,0.627
18,RRIRIRPPRLPRPRPRPHSMPRP,-0.382
19,RRIRRRPPRLPRPRPRPMYHPRP,-0.159
20,RRIRRRPPRLPRPRPRPRMAPRP,0.294
21,RRIRFRPPRLPRPRPRPRNTPRP,-0.279
22,RRIRVRPPRLPRPRPRPNKPPRP,-0.0479
23,RRIRQRPPRLPRPRPRPENTPRP,-0.387
24,RRIRIRPPRLPRPRPRPNIWPRP,0.127
25,RRIRHRPPRLPRPRPRPAQAPRP,0.183
